Measured values from PMC11670933.

Biological target: truncated human NOTCH2^ΔERA-TurboID (human)
Experiment: proximity labelling; TurboID fusions stably expressed in HT-29; 500 uM biotin for one hour; streptavidin beads; label-free quantitative mass spectrometry (DIA, Q-Exactive HF X), TurboID alone as control

## endogenous human NOTCH2 (NICD2) (natural protein)
  Log2FC NICD2RA-vs-NICD2 (log2 fold change): -2.03
  percent of the NOTCH2 recovered (against NICD2-TurboID): 13%
